This is an account of results in PMC6321638.

The target of this experiment is L52A or F85A. The experiment in a line: pull-down; GST-pulldown: purified His-SOUL (5 µM) and GST-ALG-2 (5 µM) with Glutathione Sepharose 4B in buffer B (100 mM Tris-HCl pH 7.5, 100 mM NaCl, 10% glycerol) with 20 µM CaCl2 (or various amounts of Ca2+), 30 min at 4 °C; SDS-PAGE, Coomassie.

B1: His-SOUL^WT (wild-type SOUL fused to His-tag) (natural protein)
chain: MAEEPEPDLGVAEGSEDQALEMPSWKAPEDIDPQPGSYEIRHYGPAKWVSTCVESLDWDSAIQTGFTKLNGYIQGKNEKEMKIKLTAPVTSYVEPGSSPFSESTITISLYIPSEQQPDPPRPSESDVFIEDRAEMTVFVRSFDGFSSGQKNQEQLLTLANILREEGKVFNEKVFYTAGYSSPFQLLDRNNEVWLIQKNEPSVENK
B1 gave a binding relative to ALG-2^WT (percent) of 80 to 90%.
